{"source": "patent US20250042996A1", "about": "(ALLAKOS, published 2025)", "molecules": {"B1": {"name": "mouse anti-Siglec-9 monoclonal antibody 9A12 (antibody, V domains shown)", "VH": "QVQLQQSGAELVRPGASVTLSCKASDYTFTDYEMHWVKQTPVHGLEWIGAIDPEAGGTDYNQKFKGKAILTADKSSSTAYMELRSLTSEDSAVYYCTRVWLHWGQGTTLTVSS", "VL": "NIVMTQSPSSLAVSAGEKVTMNCKSSQSVLYSSNQKNYLAWYQQKPGQSPKMLIYWASTRESGVPDRFTGSGSGTDFTLTISSVQSEDLAVYYCHQYLSSNTFGGGTKLEIK", "notes": "Mouse monoclonal antibody; also called m9A12"}, "B2": {"name": "Tf83 Fab (Fab)", "chain 1": "QVQLVQSGAEVKKPGASVKVSCKASDYTFTDYEMHWVRQAPGQGLEWMGAINPEAGGTDYAQKFQGRVTMTADTSISTAYMELSRLRSDDTAVYYCTRVWLHWGQGTLVTVSS", "chain 2": "DIVMTQSPDSLAVSLGERVTMNCKSSQSVLYSSNQKNYLAWYQQKPGQPPKMLIYWASTRESGVPDRFSGSGSGTDFTLTISSLQAEDVAVYYCHQYLSSNTFGQGTKLEIK"}, "B3": {"name": "Tf71 Fab (Fab)", "chain 1": "QVQLVQSGAEVKKPGASVKVSCKASGYTFTDYEMHWVRQAPGQGLEWMGAIDPEAGGTDYAQKFQGRVTMTADTSISTAYMELSRLRSDDTAVYYCTRVWLHWGQGTLVTVSS", "chain 2": "DIVMTQSPDSLAVSLGERVTMNCKSSQSVLYSSNQKNYLAWYQQKPGQPPKMLIYWASTRESGVPDRFSGSGSGTDFTLTISSLQAEDVAVYYCHQYLSSNTFGQGTKLEIK"}, "B4": {"name": "Tf73 Fab (Fab, V domains shown)", "VH": "QVQLVQSGAEVKKPGASVKVSCKASDYTFTGYEMHWVRQAPGQGLEWMGAIDPEAGGTDYAQKFQGRVTMTADTSISTAYMELSRLRSDDTAVYYCTRVWLHWGQGTLVTVSS", "VL": "DIVMTQSPDSLAVSLGERVTMNCKSSQSVLYSSNQKNYLAWYQQKPGQPPKMLIYWASTRESGVPDRFSGSGSGTDFTLTISSLQAEDVAVYYCHQYLSSNTFGQGTKLEIK", "notes": "also called AK643-3 / AK628-1"}, "B5": {"name": "Tf84 Fab (Fab)", "chain 1": "QVQLVQSGAEVKKPGASVKVSCKASDYTFTDYEMHWVRQAPGQGLEWMGAINPESGGTDYAQKFQGRVTMTADTSISTAYMELSRLRSDDTAVYYCTRVWLHWGQGTLVTVSS", "chain 2": "DIVMTQSPDSLAVSLGERVTMNCKSSQSVLYSSNQKNYLAWYQQKPGQPPKMLIYWASTRESGVPDRFSGSGSGTDFTLTISSLQAEDVAVYYCHQYLSSNTFGQGTKLEIK"}, "B6": {"name": "Tf63 Fab (Fab, V domains shown)", "VH": "QVQLVQSGAEVKKPGASVKVSCKASDYTFTDYEMHWVRQAPGQGLEWMGAIDPEAGGTDYAQKFQGRVTMTADTSISTAYMELSRLRSDDTAVYYCTRVWLHWGQGTLVTVSS", "VL": "DIVMTQSPDSLAVSLGERVTMNCKSSQSVLYSSNQKNYLAWYQQKPGQPPKMLIYWASTRESGVPDRFSGSGSGTDFTLTISSLQAEDVAVYYCHQYLSSNTFGQGTKLEIK", "notes": "Humanized 9A12 Fab; also called AK639-12 / AK628-1"}}, "key": {"[1]": {"molecular_target": "human SIGLEC-9-ECD-Fc recombinant fusion protein (human) (UniProt Q9Y336)", "sequence (Q9Y336 18-343)": "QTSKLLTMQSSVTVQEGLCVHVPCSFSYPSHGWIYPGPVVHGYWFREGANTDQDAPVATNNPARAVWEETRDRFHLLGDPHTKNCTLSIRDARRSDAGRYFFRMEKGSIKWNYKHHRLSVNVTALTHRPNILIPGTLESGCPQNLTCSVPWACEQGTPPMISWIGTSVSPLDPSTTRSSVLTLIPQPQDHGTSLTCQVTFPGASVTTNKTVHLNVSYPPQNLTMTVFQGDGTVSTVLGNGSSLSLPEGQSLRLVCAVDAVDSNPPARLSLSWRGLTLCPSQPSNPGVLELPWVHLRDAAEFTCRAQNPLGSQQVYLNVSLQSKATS", "test": "Ligand Displacement Assay, negative control: fitted value printed for a curve that only dips at the last points; unit inferred, x axis 'Ab (nM)'"}, "[2]": {"molecular_target": "human SIGLEC-9-ECD-Fc recombinant fusion protein (human) (UniProt Q9Y336)", "test": "Siglec-9/Ligand Blocking Assay, negative control: fitted value printed for an almost flat curve; unit inferred, x axis 'Ab (nM)'"}, "[3]": {"molecular_target": "human SIGLEC-9-ECD-Fc recombinant fusion protein (human) (UniProt Q9Y336)", "test": "Siglec-9/Ligand Blocking Assay: antibody titrated against Siglec-9-ECD-Fc, blocked binding to ligands on T47D cells, median MFI by flow cytometry; unit inferred, x axis 'Ab (nM)'"}, "[4]": {"molecular_target": "human SIGLEC-9-ECD-Fc recombinant fusion protein (human) (UniProt Q9Y336)", "test": "column 'Blocking EC50 (nM)': ligand blocking assay, antibody pre-mixed with Siglec-9-ECD-Fc, blocked binding to Siglec-9 ligands on T47D cells, flow cytometry"}, "[5]": {"molecular_target": "human SIGLEC-9-ECD-Fc recombinant fusion protein (human) (UniProt Q9Y336)", "test": "Ligand Displacement Assay: Siglec-9-ECD-Fc pre-bound to ligands on T47D cells, antibody titrated, remaining Siglec-9-ECD-Fc as median MFI by flow cytometry; unit inferred, x axis 'Ab (nM)'"}, "[6]": {"molecular_target": "human Siglec-9 (expressed on transfected Expi293 cells; also on primary human monocytes) (human) (UniProt Q9Y336)", "sequence (Q9Y336 18-463 limits assumed)": "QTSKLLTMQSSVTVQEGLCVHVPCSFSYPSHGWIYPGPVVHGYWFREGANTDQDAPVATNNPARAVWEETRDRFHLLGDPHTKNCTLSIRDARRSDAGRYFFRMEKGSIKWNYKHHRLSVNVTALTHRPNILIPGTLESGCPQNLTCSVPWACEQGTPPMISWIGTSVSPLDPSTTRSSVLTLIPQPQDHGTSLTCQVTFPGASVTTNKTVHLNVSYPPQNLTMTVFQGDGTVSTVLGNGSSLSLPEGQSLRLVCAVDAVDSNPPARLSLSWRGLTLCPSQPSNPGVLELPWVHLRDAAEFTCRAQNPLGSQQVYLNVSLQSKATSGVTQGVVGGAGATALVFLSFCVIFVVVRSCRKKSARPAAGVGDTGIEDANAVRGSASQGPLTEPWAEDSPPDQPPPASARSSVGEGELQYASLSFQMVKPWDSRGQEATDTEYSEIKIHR"}, "[7]": {"molecular_target": "human SIGLEC-9-ECD-Fc recombinant fusion protein (human) (UniProt Q9Y336)", "test": "column 'Displacement EC50 (nM)': ligand displacement assay, Siglec-9-ECD-Fc pre-bound to ligands on T47D cells, antibody titrated, remaining Siglec-9-ECD-Fc by flow cytometry"}, "[8]": {"molecular_target": "T1, human SIGLEC-9-ECD-Fc recombinant fusion protein (human, UniProt Q9Y336 18-343)", "T1 construct": "The range starts at residue 1, so it includes the signal peptide; No cleavage site is stated; Secreted from CHOK1SV cells and purified on Protein A; also called Siglec-9-ECD-huFc; S9-ECD-Fc", "T1 sequence (Q9Y336 18-343)": "as the sequence (Q9Y336 18-343) above", "test": "bio-layer interferometry (ForteBio), antibody captured on anti-mouse sensors, Siglec-9-ECD as analyte, 25 C, 1:1 global fit", "method": "Antibody binding analysis was carried out by bio-layer interferometry (ForteBio). […] Antibodies were captured on anti-mouse kinetic sensors at 0.5 ug/mL; Siglec-9-ECD was used as analyte and diluted in assay buffer from 50 nM to 1.56 nM with 2x dilutions. Two-minute associations were conducted, followed by 10-minute dissociations. Results were determined relative to a control empty reference AHC sensor, and analyzed using ForteBio analysis software with 1:1 global fit parameters."}, "[9]": {"molecular_target": "human Siglec-9 (expressed on transfected Expi293 cells; also on primary human monocytes) (human, UniProt Q9Y336 18-463)", "sequence (Q9Y336 18-463 limits assumed)": "as the sequence (Q9Y336 18-463 limits assumed) above", "test": "cell-based or functional assay"}, "[10]": {"molecular_target": "T1, human SIGLEC-9-ECD-Fc recombinant …", "test": "Ligand Displacement Assay: Siglec-9-ECD-Fc pre-bound to ligands on T47D cells, antibody titrated, remaining Siglec-9-ECD-Fc as median MFI by flow cytometry; unit inferred, x axis 'Ab (nM)'", "method": "(§1) Recombinant Siglec-9-Fc was added to T47D cells in the presence of anti-Siglec-9 antibodies at increasing concentrations and binding of the complex was detected on the cell surface. […] The ability of an antibody to displace ligand binding was also determined (FIGS. 3 and 5).\n(§2) T47D cells were treated with 2ug/mL S9-ECD-Fc for 1 hour on ice. After the 1 hr preincubation of S9, a titration curve of anti Siglec-9 msIgG1s were added for 1 hr incubation at +37° C. Cells were then washed to remove unbound S9. Bound S9 were detected through the human Fc using Alexa488 conjugated secondary. Levels of remaining S9 were assessed by flow cytometry”"}, "[11]": {"molecular_target": "T1, human SIGLEC-9-ECD-Fc recombinant …", "test": "Siglec-9/Ligand Blocking Assay: antibody titrated against Siglec-9-ECD-Fc, blocked binding to ligands on T47D cells, median MFI by flow cytometry; unit inferred, x axis 'Ab (nM)'", "method": "as §1\n(§3) Human breast cancer cell line T47D, which expresses high level of ligands for Siglec-9, was used to determine the blocking activity of anti-Siglec-9 antibodies in a cell-based assay. Two-fold serial dilutions of anti-Siglec-9 antibodies (40 nM to 40 pM) were combined with 10 nM Siglec-9-ECD-Fc in FACS buffer (PBS/2% BSA) and incubated on ice for 30 minutes. 2.5×10e4 T47D cells per well were added to round bottom 96-well tissue culture plates in FACS buffer, plates were centrifuged at 400g for 2 min, supernatant was removed and cells were re-suspended in 100 ul of the antibody-Siglec-9 complexes. After a 1 hour incubation on ice, cells were washed twice and incubated for 30 minutes with goat anti-human F(ab′)₂ fragment conjugated to AF647 (Jackson IR labs) at lug/ml in FACS buffer. After two more washes, cells were fixed in PBS/2% PFA and acquired on a Novocyte flow cytometer (ACEA biosciences). IC₅₀ values for blocking were determined based on plotting mean fluorescence in the APC channel and analysis using Prism Graphpad software."}, "[12]": {"molecular_target": "T1, human SIGLEC-9-ECD-Fc recombinant …", "test": "column 'Displacement EC50 (nM)': ligand displacement assay, Siglec-9-ECD-Fc pre-bound to ligands on T47D cells, antibody titrated, remaining Siglec-9-ECD-Fc by flow cytometry", "method": "as §1, §2"}, "[13]": {"molecular_target": "T1, human SIGLEC-9-ECD-Fc recombinant …", "test": "column 'Blocking EC50 (nM)': ligand blocking assay, antibody pre-mixed with Siglec-9-ECD-Fc, blocked binding to Siglec-9 ligands on T47D cells, flow cytometry", "method": "as §1, §3"}, "[14]": {"molecular_target": "T1, human SIGLEC-9-ECD-Fc recombinant …", "test": "BLI (ForteBio Octet Red), SIGLEC-9-ECD-Fc on anti-human Fc sensors, Fab in solution, monovalent", "method": "(§4) Anti-human Fc sensors were coated with SIGLEC-9-ECD-Fc at a concentration of 20 μg/ml in 1XHBS+1% BSA buffer (GE Lifesciences). After a brief wash with 1XHBS+1% BSA buffer, m9A12, ch9A12 or the humanized Fabs were applied to the antigen-coated sensors. The monovalent binding association and dissociation rates were calculated by the ForteBio Octet Red analysis software."}, "[15]": {"molecular_target": "T1, human SIGLEC-9-ECD-Fc recombinant …", "test": "BLI (ForteBio Octet Red), SIGLEC-9-ECD-Fc on anti-human Fc sensors, Fab in solution, monovalent", "method": "The V-regions from the humanized Fab were re-formatted for expression as a human IgG4.\nas §4", "remark": "listed apart in the source"}}, "note": "Read-outs that look alike come from different tables or passages of the source."}
{"molecule": "msIgG1 (p1) (antibody)", "values": [{"measurement": "IC50", "setting": "[1]", "result": 140, "unit": "nM"}]}
{"molecule": "Isotype (p3) (antibody)", "values": [{"measurement": "IC50", "setting": "[2]", "result": 71.3, "unit": "nM"}]}
{"molecule": "anti-Siglec-9 monoclonal antibody MAB1139 (R&D Systems)", "values": [{"measurement": "IC50", "setting": "[3]", "result": 4.39, "unit": "nM"}, {"measurement": "EC50", "setting": "[4]", "result": 4.4, "unit": "nM"}, {"measurement": "IC50", "setting": "[5]", "result": 2, "unit": "nM"}, {"measurement": "Internalization EC50: loss of surface Siglec-9 on CD14+ monocytes in PBMC after 24 h", "setting": "[6]", "result": 0.165, "unit": "nM"}, {"measurement": "EC50", "setting": "[7]", "result": 2, "unit": "nM"}]}
{"molecule": "B1", "values": [{"measurement": "Kd", "setting": "[8]", "result": "< 0.001", "unit": "nM"}, {"measurement": "Internalization EC50: loss of surface Siglec-9 on CD14+ monocytes in PBMC after 24 h", "setting": "[9]", "result": 0.125, "unit": "nM"}, {"measurement": "IC50", "setting": "[10]", "result": 1.52, "unit": "nM"}, {"measurement": "IC50", "setting": "[11]", "result": 2.62, "unit": "nM"}, {"measurement": "EC50", "setting": "[12]", "result": 1.52, "unit": "nM"}, {"measurement": "EC50", "setting": "[13]", "result": 2.62, "unit": "nM"}]}
{"molecule": "B2", "values": [{"measurement": "Kd", "setting": "[14]", "result": 9.99, "unit": "nM"}, {"measurement": "koff", "setting": "[14]", "result": 0.00297, "unit": "s⁻¹"}, {"measurement": "kon", "setting": "[14]", "result": 298000, "unit": "M⁻¹ s⁻¹"}]}
{"molecule": "B3", "values": [{"measurement": "Kd", "setting": "[14]", "result": 0.533, "unit": "nM"}, {"measurement": "koff", "setting": "[14]", "result": 0.000232, "unit": "s⁻¹"}, {"measurement": "kon", "setting": "[14]", "result": 435000, "unit": "M⁻¹ s⁻¹"}]}
{"molecule": "B4", "values": [{"measurement": "Kd", "setting": "[14]", "result": 0.575, "unit": "nM"}, {"measurement": "koff", "setting": "[14]", "result": 0.000184, "unit": "s⁻¹"}, {"measurement": "kon", "setting": "[14]", "result": 319000, "unit": "M⁻¹ s⁻¹"}, {"measurement": "Kd", "setting": "[15]", "result": 0.575, "unit": "nM"}, {"measurement": "koff", "setting": "[15]", "result": 0.000184, "unit": "s⁻¹"}, {"measurement": "kon", "setting": "[15]", "result": 319000, "unit": "M⁻¹ s⁻¹"}]}
{"molecule": "B5", "values": [{"measurement": "Kd", "setting": "[14]", "result": 2.24, "unit": "nM"}, {"measurement": "koff", "setting": "[14]", "result": 0.00295, "unit": "s⁻¹"}, {"measurement": "kon", "setting": "[14]", "result": "1.32e+06", "unit": "M⁻¹ s⁻¹"}]}
{"molecule": "B6", "values": [{"measurement": "Kd", "setting": "[15]", "result": 0.66, "unit": "nM"}, {"measurement": "koff", "setting": "[15]", "result": 0.00016, "unit": "s⁻¹"}, {"measurement": "kon", "setting": "[15]", "result": 242000, "unit": "M⁻¹ s⁻¹"}]}
